± gives the standard deviation of the averaged measurements.
system: ATP; assay: switch fluorescence ratio, 500 uM ATP over buffer (Cy3 cluster intensity, sum of 5 cycles each) (fold (ratio)); higher = stronger signal-on switching upon ATP binding; sequences stand for … in TCGTCGGCAGCGTCAGATGTGTATAAGAGACAGTTTTTTTTTTTTTTTTTTTTTTTTT…TC; settings: aptamer strand: ATP DNA aptamer (quencher-CACCTGGGGGAGTATTGCGGAGGAAGG + anchor), 100 nM annealed; ATP concentration: 500 uM
How it was run: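 Between each of five buffer/ATP cycles, the flow-cell was stripped with NaOH and re-annealed. Each cycle imaged Cy3-labelled switching-strand clusters, annealed to 100 nM quencher-labelled ATP aptamer on a modified Illumina MiSeq flow-cell, first in selection buffer and then after 15 min with 500 uM ATP at 22 °C. The fluorescence ratio is summed target-cycle over summed buffer-cycle Cy3 intensity per cluster, averaged per switch-domain sequence, with clusters outside 100-1000 RFU excluded.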
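Note: ATP exposure 15 min at 22 °C before imaging.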

Sequence | switch fluorescence ratio
TGAGAAGTTT | 0.992 ± 0.023
TGAGAATTTG | 0.976 ± 0.048
TGAGACTTAC | 1.15 ± 0.06
TGAGAGAAGG | 1.01 ± 0.014
TGAGAGAGTG | 1.02 ± 0.059
TGAGAGCAGG | 1.08 ± 0.025
TGAGAGCGTC | 0.89 ± 0.14
TGAGAGGAAG | 0.989 ± 0.018
TGAGAGGATG | 0.99 ± 0.021
TGAGAGGGGT | 1.05 ± 0.042
TGAGAGTAGG | 0.9839 ± 0.0072
TGAGAGTGCG | 0.968 ± 0.027
TGAGATAAGG | 0.987 ± 0.03
TGAGATAGAT | 1 ± 0.013
TGAGATCGGC | 0.992 ± 0.042
TGAGCAGCTG | 0.953 ± 0.058
TGAGCATGAA | 1 ± 0.024
TGAGCCCTTT | 1.018 ± 0.0046
TGAGCCGGGA | 1 ± 0.019
TGAGCCTTGG | 0.995 ± 0.017
TGAGCTAATG | 1.04 ± 0.043
TGAGCTGGGT | 0.995 ± 0.02
TGAGGAAATG | 1 ± 0.037
TGAGGAGGGC | 1.02 ± 0.08
TGAGGCCTAG | 1.02 ± 0.056

Sequence | switch fluorescence ratio
TGAGGGACAT | 1.02 ± 0.046
TGAGGGAGGT | 0.985 ± 0.03
TGAGGGCAAG | 1.02 ± 0.022
TGAGGGCCGA | 1.02 ± 0.13
TGAGGGCGGG | 1.03 ± 0.056
TGAGGGCGTT | 0.995 ± 0.031
TGAGGGGGTG | 1 ± 0.029
TGAGGGTACA | 0.984 ± 0.017
TGAGGGTGCT | 1.04 ± 0.037
TGAGGTATAT | 1.01 ± 0.015
TGAGGTATGC | 0.994 ± 0.031
TGAGGTCAGG | 0.982 ± 0.017
TGAGGTCATT | 0.989 ± 0.028
TGAGGTGGGG | 0.9887 ± 0.0027
TGAGTATGGT | 1.002 ± 0.0059
TGAGTATTTT | 0.992 ± 0.025
TGAGTCCCGG | 1 ± 0.016
TGAGTCGTGT | 0.9674 ± 0.0054
TGAGTGAGGG | 1.01 ± 0.018
TGAGTGCAGG | 1.02 ± 0.066
TGAGTGTGTT | 0.962 ± 0.026
TGAGTTATG | 1.0034 ± 0.00041
TGAGTTATGC | 0.953 ± 0.015
TGAGTTCGCA | 1.69 ± 0.13
TGAGTTGGGG | 0.967 ± 0.016

Sequence | switch fluorescence ratio
TGAGTTTTTA | 0.9956 ± 0.0072
TGATAAAAAT | 0.993 ± 0.027
TGATAATCTT | 0.99 ± 0.028
TGATAATTGT | 1.01 ± 0.034
TGATACTCGC | 1.18 ± 0.12
TGATAGGGGT | 1.02 ± 0.05
TGATAGGTCT | 0.986 ± 0.03
TGATAGTAGT | 1 ± 0.025
TGATAGTCTA | 1 ± 0.068
TGATATAGAG | 1 ± 0.029
TGATATCTTG | 0.9862 ± 0.0028
TGATATTATT | 1.02 ± 0.015
TGATATTTTA | 0.986 ± 0.035
TGATCAGGGA | 1.02 ± 0.021
TGATCGAAGG | 0.991 ± 0.034
TGATCGGGGG | 0.982 ± 0.064
TGATCTGCAG | 1.016 ± 0.0077
TGATGCACGG | 1.04 ± 0.021
TGATGCAGAG | 1.02 ± 0.018
TGATGCTTT | 1.01 ± 0.077
TGATGGATAG | 0.995 ± 0.047
TGATGGCAGT | 1.02 ± 0.031
TGATGGCCGA | 0.985 ± 0.019
TGATGGGCGG | 0.9957 ± 0.008
TGATGGGCGT | 0.9801 ± 0.0016

Sequence | switch fluorescence ratio
TGATGGGGTG | 0.99 ± 0.012
TGATGTGCA | 1.01 ± 0.17
TGATGTTACG | 0.9871 ± 0.0046
TGATGTTCGA | 1 ± 0.028
TGATTACTGG | 1.027 ± 0.01
TGATTAGAGT | 1.01 ± 0.016
TGATTAGATT | 1.01 ± 0.046
TGATTAGTTG | 0.993 ± 0.02
TGATTCACTG | 0.9907 ± 0.0075
TGATTCAGGT | 1 ± 0.024
TGATTCTTAG | 0.989 ± 0.023
TGATTGCCGG | 0.996 ± 0.02
TGATTGTATG | 1.01 ± 0.011
TGATTGTGCA | 0.989 ± 0.035
TGATTGTGGC | 0.9557 ± 0.0095
TGATTGTTGG | 1.01 ± 0.012
TGATTTATAG | 1.012 ± 0.009
TGATTTCAGG | 0.982 ± 0.062
TGATTTGTTG | 0.971 ± 0.011
TGATTTTCCA | 0.988 ± 0.021
TGATTTTCTG | 1.008 ± 0.002
TGATTTTGTT | 1.01 ± 0.018
TGATTTTTCT | 1 ± 0.013
TGCAAACCTA | 1.0241 ± 0.00058
TGCAAAGAAA | 1.15 ± 0.12

— the supplement of paper PMC10126150
